This experiment deals with T1, integrin β3(G690C/A711P) TM peptide of the disulfide-linked αIIb(A963C)–β3(G690C/A711P) dimer (human, UniProt P05106 711-753, C687S | G690C | A711P, not fully specified; C690 disulfide-linked to C963 of αIIb(A963C); 2H/13C/15N or 2H/15N labelling in some samples).
T1 construct: integrin β3, human, P685-F727; add 26 for P05106; source: E. coli
T1 chain (looked up): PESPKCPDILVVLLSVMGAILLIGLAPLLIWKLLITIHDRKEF
Put plainly: NMR structure; disulfide-linked dimer, 0.8 mM, in 350 mM DHPC, 105 mM DMPC bicelles (q 0.3), pH 7.4, 40 °C; interhelical NOEs and RDCs. Conditions: both partners purified.

These results are taken from paper PMC4951694, “Structural and thermodynamic basis of proline-induced transmembrane complex stabilization” (Scientific Reports, 2016).

B1: integrin αIIb(A963C) TM peptide of the disulfide-linked αIIb(A963C)–β3(G690C/A711P) dimer (peptide)
chain: not shown
modifications: C963 disulfide-linked to C690 of β3(G690C/A711P); 2H/13C/15N, 2H/15N or fractionally deuterated labelling in some samples
notes: integrin αIIb, human, A958-P998; add 31 for P08514; source: E. coli
Consider B1, for which the binding result was “binds”.
